Test results taken from patent publication US20250388640A1 (SYNTHEKINE, published 2025).

Experiments:
Assay in all cases: cell-based or functional assay
[1] = biological target: T1, hIL-12 receptor signaling complex (hIL-12Rβ1 and hIL-12Rβ2) (human, UniProt P42701 24-662; Q99665 24-862)
[2] = biological target: T1, hIL-12 receptor signaling complex …; remark: listed apart in the source
[3] = biological target: T1, hIL-12 receptor signaling complex …; remark: listed apart in the source
[4] = biological target: T1, hIL-12 receptor signaling complex …; remark: listed apart in the source

T1 sequence (Q99665 24-862, chain 2 of 2, other chains not shown): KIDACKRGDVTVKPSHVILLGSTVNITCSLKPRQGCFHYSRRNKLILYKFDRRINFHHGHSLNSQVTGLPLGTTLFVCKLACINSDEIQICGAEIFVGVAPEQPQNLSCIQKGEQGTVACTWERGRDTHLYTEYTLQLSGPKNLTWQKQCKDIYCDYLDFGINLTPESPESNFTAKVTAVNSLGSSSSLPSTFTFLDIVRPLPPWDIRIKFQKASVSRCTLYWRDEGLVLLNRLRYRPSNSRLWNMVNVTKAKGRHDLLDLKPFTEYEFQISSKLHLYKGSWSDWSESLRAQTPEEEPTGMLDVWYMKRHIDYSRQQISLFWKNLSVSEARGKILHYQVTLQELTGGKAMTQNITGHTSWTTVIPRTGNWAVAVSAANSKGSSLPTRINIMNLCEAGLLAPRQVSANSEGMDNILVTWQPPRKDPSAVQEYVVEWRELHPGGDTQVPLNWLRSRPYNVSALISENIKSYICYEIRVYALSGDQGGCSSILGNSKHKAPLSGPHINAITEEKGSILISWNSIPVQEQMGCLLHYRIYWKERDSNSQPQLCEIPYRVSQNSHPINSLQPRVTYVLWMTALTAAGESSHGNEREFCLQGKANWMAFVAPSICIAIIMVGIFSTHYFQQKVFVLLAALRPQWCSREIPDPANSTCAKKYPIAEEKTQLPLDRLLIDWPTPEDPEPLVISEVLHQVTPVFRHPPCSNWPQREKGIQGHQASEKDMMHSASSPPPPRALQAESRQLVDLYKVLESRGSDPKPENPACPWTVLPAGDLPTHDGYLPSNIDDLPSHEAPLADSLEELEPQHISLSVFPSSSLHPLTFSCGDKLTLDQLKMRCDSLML

Binder	IFNy [gMFI] EC50, CD8+ T Cells [1] [nM]	IFNy [gMFI] EC50, CD56hi NK Cells [1] [nM]	IFNy [gMFI] Emax, CD8+ T Cells [1] [gMFI]	IFNy [gMFI] Emax, CD56hi NK Cells [1] [gMFI]	pSTAT4 [gMFI] EC50, CD8+ T Cells [2] [nM]	pSTAT4 [gMFI] EC50, CD56hi NK Cells [2] [nM]	pSTAT4 [gMFI] Emax, CD8+ T Cells [2] [gMFI]	pSTAT4 [gMFI] Emax, CD56hi NK Cells [2] [gMFI]	pSTAT4 [%+] EC50, CD8+ T Cells [3] [nM]	pSTAT4 [%+] EC50, CD56hi NK Cells [3] [nM]	pSTAT4 [%+] Emax, CD8+ T Cells [3] [%+]	pSTAT4 [%+] Emax, CD56hi NK Cells [3] [%+]	IFNy [%+] EC50, CD8+ T Cells [4] [nM]	IFNy [%+] EC50, CD56hi NK Cells [4] [nM]	IFNy [%+] Emax, CD8+ T Cells [4] [%+]	IFNy [%+] Emax, CD56hi NK Cells [4] [%+]
human IL12 mutein, hIL-12p40 E81A, F82A with hIL-12p35-8X His (ligand) chain 1: IWELKKDVYVVELDWYPDAPGEMVVLTCDTPEEDGITWTLDQSSEVLGSGKTLTIQVKAAGDAGQYTCHKGGEVLSHSLLLLHKKEDGIWSTDILKDQKEPKNKTFLRCEAKNYSGRFTCWWLTTISTDLTFSVKSSRGSSDPQGVTCGAATLSAERVRGDNKEYEYSVECQEDSACPAAEESLPIEVMVDAVHKLKYENYTSSFFIRDIIKPDPPKNLQLKPLKNSRQVEVSWEYPDTWSTPHSYFSLTFCVQVQGKSKREKKDRVFTDKTSATVICRKNASISVRAQDRYYSSSWSEWASVPCS chain 2: RNLPVATPDPGMFPCLHHSQNLLRAVSNMLQKARQTLEFYPCTSEEIDHEDITKDKTSTVEACLPLELTKNESCLNSRETSFITNGSCLASRKTSFMMALCLSSIYEDLKMYQVEFKTMNAKLLMDPKRQIFLDQNMLAVIDELMQALNFNSETVPQKSSLEEPDFYKTKIKLCILLHAFRIRAVTIDRVMSYLNASGSHHHHHHHH	0.41	2.56	17100	187000	6.6	5.94	100000	25000	1.13	1.85	80.2	85.2	0.095	0.02	81.5	94
human IL12 mutein, hIL-12p40 E81A, F82A, K106A with hIL-12p35-8X His (ligand) chain 1: IWELKKDVYVVELDWYPDAPGEMVVLTCDTPEEDGITWTLDQSSEVLGSGKTLTIQVKAAGDAGQYTCHKGGEVLSHSLLLLHAKEDGIWSTDILKDQKEPKNKTFLRCEAKNYSGRFTCWWLTTISTDLTFSVKSSRGSSDPQGVTCGAATLSAERVRGDNKEYEYSVECQEDSACPAAEESLPIEVMVDAVHKLKYENYTSSFFIRDIIKPDPPKNLQLKPLKNSRQVEVSWEYPDTWSTPHSYFSLTFCVQVQGKSKREKKDRVFTDKTSATVICRKNASISVRAQDRYYSSSWSEWASVPCS chain 2: RNLPVATPDPGMFPCLHHSQNLLRAVSNMLQKARQTLEFYPCTSEEIDHEDITKDKTSTVEACLPLELTKNESCLNSRETSFITNGSCLASRKTSFMMALCLSSIYEDLKMYQVEFKTMNAKLLMDPKRQIFLDQNMLAVIDELMQALNFNSETVPQKSSLEEPDFYKTKIKLCILLHAFRIRAVTIDRVMSYLNASGSHHHHHHHH	1.4	2.8	15000	140000	9.75	156	86900	35700	1.86	4.03	77.7	86.9	0.533	0.079	78.4	90.8
